This note sets out measurements from patent US20090123474A1, “COMBINATION OF ANGIOPOIETIN-2 ANTAGONIST AND OF VEGF-A, KDR AND/OR FLTL ANTAGONIST FOR TREATING CANCER” (ASTRAZENECA AB, priority 2005, published 2009).

The test deals with T1, Angiopoietin-1 (Homo sapiens, UniProt Q15389).
T1 construct: purchased R&D Systems 293-AN-025/CF
T1 sequence (Q15389 16-498): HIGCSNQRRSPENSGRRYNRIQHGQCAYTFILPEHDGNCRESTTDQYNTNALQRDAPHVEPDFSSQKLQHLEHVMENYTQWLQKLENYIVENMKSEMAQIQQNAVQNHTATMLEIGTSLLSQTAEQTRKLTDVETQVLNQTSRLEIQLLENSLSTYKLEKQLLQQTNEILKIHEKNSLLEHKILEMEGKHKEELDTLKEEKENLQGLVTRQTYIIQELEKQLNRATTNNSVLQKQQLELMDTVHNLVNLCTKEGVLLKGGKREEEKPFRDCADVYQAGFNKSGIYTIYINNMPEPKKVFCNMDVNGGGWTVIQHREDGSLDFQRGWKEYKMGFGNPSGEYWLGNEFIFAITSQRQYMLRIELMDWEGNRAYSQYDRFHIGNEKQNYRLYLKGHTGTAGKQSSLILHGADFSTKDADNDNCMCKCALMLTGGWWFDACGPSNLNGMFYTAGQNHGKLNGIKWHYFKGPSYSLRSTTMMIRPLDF
In words: Biacore (SPR) medium resolution screen of mAb binding to Angiopoietin-1. The procedure:
The cross-reactivity of the antibody to Angiopoietin-1 was further investigated by measuring the affinity of the mAbs to Angiopoietin-1. Instead of immobilizing Angiopoietin-1, as described in ELISA-based counter-binding, the mAbs were immobilized to the CM5 Biacore chips, and Angiopoietin-1 in solution was injected for the determination of the on-rate and off-rate. Six mAbs; 3.3.2, 3.31.2, 5.16.3, 5.86.1, 5.88.3 and 3.19.3 were tested.
Label-free surface plasmon resonance (SPR), or Biacore 2000 instrumentation, was utilized to measure antibody affinity to Angiopoietin-1. For this purpose, a high-density goat α-human antibody surface over a CM5 Biacore chip was prepared using routine amine coupling. For developmental experiments, purified mAbs (clones 3.3.2, 3.31.2, 5.16.3, 5.86.1, 5.88.3 and 3.19.3) were diluted to approximately 2.5-3.5 μg/ml in HBS-P running buffer containing 100 μg/ml BSA. The capture level for each mAb was approximately 150 RU. A 5-minute wash followed each capture cycle to stabilize the mAb baseline. A single Angiopoietin-1 sample diluted to 87.4 nM in the running buffer was injected for one minute over all capture surfaces. […] This experiment was repeated by increasing the mAb capture levels to well over 500-600 RU and injecting 380 nM Angiopoietin-1 for one minute. Angiopoietin-1 was again found to bind mAb 3.19.3.

B1: mAb 3.19.3: fully human anti-Angiopoietin-2 monoclonal antibody, variable regions SEQ ID NO: 5-8; also binds Angiopoietin-1 (antibody, V domains shown)
VH: QVQLVESGGGVVQPGRSLRLSCAASGFTFTNYGMHWGRQAPGKGLEWVAVISHDGNNKYYVDSVKGRFTISRDNSKNTLYLQMNSLRAEDTAVYYCAREGIDFWSGLNWFDPWGQGTLVTVSSA
VL: EIVLTQSPGTLSLSPGERATLSCRASQSITGSYLAWYQQKPGQAPRLLICGASSWATGIPDRFSGSGSGTDFTLTISRLEPEDFAVYYCQQYSSSPITFGQGTRLEIKR
For B1, the “binding of Angiopoietin-1 to captured mAb” value was “found to bind” (87.4 nM Angiopoietin-1, capture level approximately 150 RU) and “found to bind” (380 nM Angiopoietin-1, capture levels over 500-600 RU).
